# In the DeepSol protein solubility set:
# Experiment: soluble on expression in E. coli; label from the status in PepcDB or PDB records
row,Sequence,soluble on expression in E. coli
1,MGSDKIHHHHHHAEPVADPMEEEGISVVRYDKLLDEYVRFNSFSALQKMNLEYALPTKLLIEDVLAIGQVSDDHIFQRLKTFYSDTTLVRLIEDVEAKYPELESVEKNLTKGFGKLQKEIPDIMIPMIYTQISAFNESIVLSDSVLGISLDKYMGEDYPLYKRFYYNYQRRTMRPDRIVPDCLVFYLMSQYPFPMDYSRTLLDVMMHYGKINYVVQHLLDYSSSEEALGYSDLEREWCKENQQQMWRYILEQDHLHATDPMVVRQYTRPAPFTNTLGENAPSMVGTWIGTKIITSYMKHHKKTTLRQLLEMSDYERMFTESRFNP,not soluble
2,MGSDKIHHHHHHAERISFFYPPFGEFSLSVDSLETFAKVGKIDRDFSFYASRATPQQLAQLRDLLQQRFNLTPTLVSQVTYSPIGEQLVQQLGKLLLTESRQNGFYAIRASLILAAADREGLTVVNLLRKFPSNTVRVNFTEGLRIVDDLSQLLKKKDEVVASLQKEAIAQAANSTVDFSKQPDLRSPGKFRWLKKSLELNDISRSRRLPVDIYLPTTQNSEPTDQNSPSPPFPLIVISHGLASDRSTFVYLAEHLASYGFAVAVLEHPGSNAKRFQEYFAGLASPPEPEEFIDRPLDIKYLLDELQRLEKSDPSLHGKLNFQQVGAIGQSFGGYTVLTLAGAKINFEQLRQDCNPNNSSFNLSLLLQCEASKLPQKNYELKDDRIKAIMAINPIDSLVLGEGGVSQIKMPVMLVAGSQDIFAPPVFEQIRPFTWLSDPNKYLALIENATHFSAIAEPTPENDVLPVPPALLGPDRDAVYSYLNALSVAFMETHLLNRPEYRSYLQPSYATFISKEPLNLSILQSLSVAQFNQIWSASIPQSAKLSNPQPTPR,not soluble
3,MGSDKIHHHHHHAICLRDDIGNYVIKWETDPVMEGIVKMTVSDNPDLFTNESPIIYANIKDGVATYITNDNISRKYFRLSFNDKYPRIIGARSAVMDSVQNFRDLGGYTSTNGKTVKWGKVFRSGELSSLSEWDSIRLDNLGIKTIIDLRTNQETLTAPIKYTKANILQIPISVGKIADAPQRVIEGRMRKGDAGVYMEDEYLQFVTDNTDQFAKVLEQFQNEDNYPILISCSYGKDRTGFLTAMLLAALDIPRDAIMEDYLTSNQYIDTSHLADIVKHLSTDAQESITVFLTANEGLMDLAFHKIKKEYGSTEKYLSKGLRLTDKKRERLKDILLY,not soluble
4,MGSDKIHHHHHHAKDKDAYRQYGINCIENGSYDDAVDAFQKALDQSVGSVGAEELDICYYKAKAQYLSGDVDGAIDTYTAIIDYNKDSDAYYLRGCIYFAKNDSDKGLKDFKTALSENNDNYELYLGVYETLSKYGMNDQGKEYLDNALKLKAKTADDYMQRGRIYTMLGDYDSAIKSLQKAIDEKLVKANYYMGEVYQKKGDNDSSQKYFKKYLDSGEADSYELMNMGQAQMDNGNYDTAITYFQNALELESVPNKQQITKAMIIAYEYSGDFATAKSKMEEYMKDYPDDEDAAREYQFLETR,not soluble
5,MGSDKIHHHHHHALICNSAVTTTASTLYSWHQVRNTLAIMFNKRHIERHQLPCVLKVFNRFTGQEIGQLGNASENGLMVISQLPVLVGPDYELQLRMPLPGGGHQFVNLTASCLWCREDQTPGHYDSGFMLLQSPREYDDFVRSLRDYFSFRPANAPV,not soluble
6,MGSDKIHHHHHHAMDNYDYETVVTLIEPDCQDSLLLITKAQALKAMNRYPEAIGVLNSLILKDSTNTKVLIDLAECYKLTGNSRRAANCYQKAMNLQPENKFFRLQFIRSLLASEDYEEARTACHGWLERDSLSATGYKYLGQAYEGLQDAASAFLSYNIAYRRDSLDAQTVARIAGIFNNNQQFKDAVDVTEVYRLSDTTNIDVNRQNAKAYCMLKEYGTAVKRYESLKELGDRSFLTLYYLGVSHYGDNWFYGAYDNLKEAYQKNPMDVNVLYYLAKASARTSWKKEGVEYMEEAFRIAVPSDSMMVRLYDGLVECYDYAGDTKKEVEALEKLYIYTKKNSILYKIACLYDWKEDEKNAIRYYRKYMATVSEDQRYALDEDGNPVEDRITLYQQAWKRIKKIKEEGFFRGDIPTKSFPVEKKDTLALRHAK,not soluble
7,MGSDKIHHHHHHANQKSEHDHVAKVPKSYLPSGSVMAKEASANLKLSEKLSLIDGQWDSTTDDAASYEMDEQDYQAVATCRKSIEKLYDEKLYPVNLSPDYSNWYTWEAAAKKASDNTFNTYTAYYWIIRFEKYDGTQNHTIWMLEDGTIIMAKAHMKDISDMSEYKEVLQADDESQAENDLSAYKGYFDYSGIDFSKLNLISETTAVEQKNNESYEVLQFLQENEYVYAIHEK,not soluble
8,MGSDKIHHHHHHAPSEAQQFTEFWTPGKPNPSICKSPLLVSTPLGLPRCLQASNVVKRLQKLEDIASLNDGNRAAATPGYQASVDYVKQTLQKAGYKVSVQPFPFTAYYPKGPGSLSATVPQPVTYEWEKDFTYLSQTEAGDVTAKVVPVDLSLGAGNTSTSGCEAEDFANFPAGSIALIQRGTCNFEQKAENAAAAGAAGVIIFNQGNTDDRKGLENVTVGESYEGGIPVIFATYDNGVAWSQTPDLQLHLVVDVVRKKTETYNVVAETRRGNPNNVVMVGAHLDSVFEGPGINDNGSGSAAQLEMAVLLAKALPVNKVRFAWWGAEEAGLVGSTHYVQNLAPEEKKKIKAYLNFDMIGSPNFGNFIYDGDGSDFGLQGPPGSAAIERLFEAYFRLRGQQSEGTEIDFRSDYAEFFNSGIAFGGLFTGAEGLKTEEQAQKYGGTAGKAYDECYHSKCDGIANINQDALEIHSDAMAFVTSWLSLSTKVVDDEIAAAGQKAQSRSLQMQKSASQIERWGHDFIK,not soluble
9,MGSDKIHHHHHHAQDKKKEFKMPTGYAGITHEMSEFYEPVPPVVTPGTDLKGGGFTAPSDAIVLFDGKDLSAWESVKGGAAEWDVHDGVFTVNKKKGDIQTKQKFNDFQMHIEWQVPTNITGESQSRGNSGIFLQGMYEVQVLDCYNNPTYVNGQTGSIYKQSIPLANAMRKPGEWNVYDIIYTAPTFKEDGSYRTHPTVTVIQNGVVLQNHTTILGTTEWIGFPQVKKHGAGPIILQSHGDPSEPISFRNIWIREL,not soluble
10,MGSDKIHHHHHHAQSKSSVYKPWSHGQLKVSKENRYLMNADGTPFFWLGDTGWLLPEKLNRDEAAYYLEHCRQAGFNVVQVQTINGVPAMNFYGQYSMIDGFNFKNIDRKGVYGYWDHMDYIIQKAEQNGIYIAMVCIWGGLVRSGKMNVEEAKAYGRFLGERYKDAPNIIWVIGGDTYADRNTEIWEALANSILAVDENHIMTFHPFGRTSSATHLNNKEWMDMNMFQSGHRRYGQKKGDGDTSVTGLEEDNWRYVEEALSMTPLKPVLDAEPSYEGIPQGLHDPAQPRWRDCDVRRYGYWSVFAGSCGHTYGHNNIMQFLKPGTPGGYGADGIEKPWYKAMQDPGFNQMKYLKNLMLTFPYFERVPDQSVIAGTNGNRYDRAIATRGKDYLLVYNYSGNPMSVDLTKISGAKKKVWWYSPKDGKLSFIGEFDSKITPFTYDGSYNRDNDQVLIAIDSSKNYISTEWLELPMVNQ,not soluble
11,MGSDKIHHHHHHAQTPNTLTKKEKKAGWELLFNGKDFSGWRQCNGTAMPANWVIEDNAMKVFTGEGKKPGQGANGDILYQNKKFKNFELSVDWKASKMGNSGIFYYVREVPGKPIYYAAPEVQVLDNVDATDNKLANHLAGSLYDMLPADPKTVNPAGEWNTIVIRVKDGKVTHTQNGKKVVEYTLWSKEWDDLVANSKFKNFPGFTEGISKEGYIGLQDHGYPIWFRNIKIRELK,not soluble
12,MGSDKIHHHHHHARPQEKIKKKEISQSYSVSAGDRLQVENRYGNITVTHWNQNTVAIRVEVECKARSEERAQENLDRIQIETKKIGGIVSAVTTIKKEMNSNSNNESMTINYYIQMPPKLAADLNQKYGNINLPSDNNGNMDIHVKYGNLNAGNFTANAMIEAKYGNIEVGNLQDAQLDLGYVGTAKIRNAKDLTIDSKYSNLDIQDIQSLRMEIKYGNLTIESVSRLDMEIKYSDAKIGTLKDALNVSSLSYSNLKIRNLSPSFSKVNVESHYGNLEVALPAKTSFRIVAENMKYSSCDVNGFNITRKHFDDEDRDKNYTYEINGGKQPTIHFEGNRYGNLKVKAN,not soluble
13,MGSDKIHHHHHHASSCGDECPVEQPYSVRVSVKDKNYLNISQFPQLSQVDENLPFRTYAGTLYYALYDASTGALIRESAVVSTEGEEKEYTLTFPGVPDGDYKLAVWGNLTTDYPAGILHQDGKEHTDIYVTSGDLHFSPDYQTEELTLERTKGKLLLLCSNFPSEITRIEQNVSHVYQSTDAGLNYSGSTQVDKNVPFTSVLETLLAPTSAEGHSKLTLTFYTGGTRASETPYLKLPVMEMDMRRNEITAVSIDYNTSEGIWEIKMFIRGEWITIHRLDIF,not soluble
